# In PMC7641744:
# Where two headings read alike, the source gives them in different places.
# T1: RcopLS20-His(6) (Bacillus subtilis plasmid pLS20 (pLS20cat)), ORF:72252162
# T1 sequence: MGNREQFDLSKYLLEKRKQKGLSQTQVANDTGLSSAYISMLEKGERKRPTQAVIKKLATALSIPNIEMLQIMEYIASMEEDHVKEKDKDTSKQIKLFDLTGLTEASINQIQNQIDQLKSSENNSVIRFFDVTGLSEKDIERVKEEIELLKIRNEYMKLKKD
# T2: RappLS20-His(6) (Bacillus subtilis plasmid pLS20 (pLS20cat)), ORF:c1c32938
# T2 sequence: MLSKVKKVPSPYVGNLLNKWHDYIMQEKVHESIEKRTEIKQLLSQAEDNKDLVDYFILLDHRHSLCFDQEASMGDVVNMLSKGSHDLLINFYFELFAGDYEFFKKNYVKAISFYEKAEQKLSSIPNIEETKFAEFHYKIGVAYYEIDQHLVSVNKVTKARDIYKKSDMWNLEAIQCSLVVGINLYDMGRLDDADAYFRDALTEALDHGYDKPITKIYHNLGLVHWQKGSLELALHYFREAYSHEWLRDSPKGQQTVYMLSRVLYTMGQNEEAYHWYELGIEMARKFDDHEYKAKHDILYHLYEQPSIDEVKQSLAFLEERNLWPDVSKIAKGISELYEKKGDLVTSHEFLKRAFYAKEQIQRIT
# B1: PhrF* (peptide)
# peptide: QRGMI
# Columns and labels:
# [1] = target: Rco_(pLS20)-His(6) (Bacillus subtilis plasmid pLS20); test: AUC
# [2] = target: Rap_(pLS20)-His(6) (Bacillus subtilis plasmid pLS20); test: AUC
# [3] = test system: T1, RcopLS20-His(6) (Bacillus subtilis plasmid pLS20 (pLS20cat)), ORF:72252162; test: EMSA
# [4] = test system: T2, RappLS20-His(6) (Bacillus subtilis plasmid pLS20 (pLS20cat)), ORF:c1c32938; test: EMSA
# [5] = test system: T1, RcopLS20-His(6) (Bacillus subtilis plasmid pLS20 (pLS20cat)), ORF:72252162; test: analytical ultracentrifugation
# [6] = target: Rap_(pLS20)-His(6) (Bacillus subtilis plasmid pLS20); test: AUC; remark: listed apart in the source
# [7] = target: Rap_(pLS20)-His(6) (Bacillus subtilis plasmid pLS20); test: AUC; remark: listed apart in the source
molecule,measurement,setting,value
Rco_(pLS20)-His(6) (natural protein),stoichiometry N,[1],4
same,stoichiometry N,[2]; scale: mol of Rco_(pLS20) per mol of Rap_(pLS20),2.1
"CGCGGATCCTATACCACCTCGCAAAATAAACCCTGTATACGGTCTAGCGCTTACAATTTTTCGCGTTTTTTTTACTCAGTGAAAAAAACCGGTTAAAAATTTCACTGAAATACTTTACAGTTAAAAAAATGTCTGTTATCTTAGTGAAAGAGTCAGTGAAAAAAATGCAGAATAAGGTTTTTTGTTGTTAATCTCAAACAATTTCTGTGTAAAAAGAAC (double strand) [Fragment FIII (219 bp, operator OII)]",binding,[3],binds
same,binding,[4],no binding
same,binding,[5],binds
Phr*_(pLS20) (peptide),Kd,[2],2.1 µM
PhrF*-I5Y (peptide),Kd,[2],4.2 µM
PhrF*-R2K (peptide),Kd,[2],4.2 µM
Rap_(pLS20)-His(6) (natural protein),stoichiometry N,[6],4
same,stoichiometry N,[7],2
same,stoichiometry N,[2],4
B1,Kd,[2],5.3 µM
